Assay results from patent publication US20250074943A1 (Amgen, published 2025).
Values joined by “and” are separate entries in the source; they are usually repeats but may differ in a detail not shown here. Equal entries are not always repeated. Bridge positions count the residues as written; N and C are the ends. Ends that are not written are not given here.

How the values were obtained:
[1] = target: T1, recombinant DLL3 ectodomain (rhDLL3-Fc) (human, UniProt Q9NYJ7 27-492, biotinylated (NHS-LC-LC-biotin) in the BLI and SPR assays); experiment: BLI (Octet), biotinylated rhDLL3-Fc on streptavidin sensors
T1 construct: also called rDLL3-Fc; recombinant human DLL3 (rDLL3); not shown: Fc part
T1 sequence: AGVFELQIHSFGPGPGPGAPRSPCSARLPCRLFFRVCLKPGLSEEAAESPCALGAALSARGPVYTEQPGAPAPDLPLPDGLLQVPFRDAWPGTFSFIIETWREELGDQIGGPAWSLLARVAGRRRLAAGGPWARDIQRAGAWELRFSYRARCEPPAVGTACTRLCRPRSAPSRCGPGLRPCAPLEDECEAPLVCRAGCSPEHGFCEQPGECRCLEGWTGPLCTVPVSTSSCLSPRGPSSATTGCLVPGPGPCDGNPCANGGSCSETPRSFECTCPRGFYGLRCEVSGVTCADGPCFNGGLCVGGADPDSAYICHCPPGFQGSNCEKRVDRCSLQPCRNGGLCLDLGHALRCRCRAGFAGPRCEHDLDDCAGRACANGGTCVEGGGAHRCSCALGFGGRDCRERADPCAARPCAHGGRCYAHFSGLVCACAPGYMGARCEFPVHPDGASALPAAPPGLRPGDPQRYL
Procedure: Binding kinetic assays were performed using Bio-layer interferometry (BLI) technology. The recombinant DLL3 ectodomain (rhDLL3-Fc) was biotinylated using EZ-Link Sulfo-NHS-LC-LC-Biotin Kit according to the manufacturer's protocol (Pierce by Thermo Fisher Scientific). The recombinant protein was incubated with an excess of NHS-LC-LC Biotin ester, in a molar ratio of 1:3 (protein: biotin), at 25° C. for 90 min. The un-reacted biotin ester was removed by subsequent buffer exchange on 0.5 ml Zeba spin desalting columns 7K MWCO (Pierce by Thermo Fisher Scientific).

[2] = target: T1, recombinant DLL3 ectodomain (rhDLL3-Fc); experiment: phage ELISA on rDLL3-Fc
[3] = target: T2, human DLL3 expressed on the surface of cells (human, UniProt Q9NYJ7 27-618); experiment: phage cell ELISA/FACS on DLL3-expressing cells;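 also: phages incubated 1 h at room temperature with cells overexpressing human DLL3, read by flow cytometry fluorescence, then fixed-cell ELISA with anti-M13-HRP at A370 nm, parental cells alongside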
T2 construct: Stably transfected CHO or HEK293 cells; also called huDLL3; hDLL3
T2 sequence: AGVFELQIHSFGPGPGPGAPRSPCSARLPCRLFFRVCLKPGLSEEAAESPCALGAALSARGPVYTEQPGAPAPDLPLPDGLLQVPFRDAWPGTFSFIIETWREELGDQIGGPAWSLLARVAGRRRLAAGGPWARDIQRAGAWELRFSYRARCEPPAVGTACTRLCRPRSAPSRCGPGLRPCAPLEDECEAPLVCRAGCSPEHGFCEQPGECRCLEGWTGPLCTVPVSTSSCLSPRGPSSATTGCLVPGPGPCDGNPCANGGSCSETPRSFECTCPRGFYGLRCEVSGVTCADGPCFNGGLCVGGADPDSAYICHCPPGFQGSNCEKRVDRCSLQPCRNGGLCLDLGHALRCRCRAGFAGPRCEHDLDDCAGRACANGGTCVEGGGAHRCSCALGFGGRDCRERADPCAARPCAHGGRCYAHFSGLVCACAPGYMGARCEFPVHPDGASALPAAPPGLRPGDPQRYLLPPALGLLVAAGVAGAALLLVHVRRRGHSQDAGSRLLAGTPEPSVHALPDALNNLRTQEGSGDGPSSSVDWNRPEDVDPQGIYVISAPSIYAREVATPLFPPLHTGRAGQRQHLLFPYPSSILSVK

For AETVEFWSCKWWGGAADEYTYSCGW-NH2 (disulfide 9-23 (inferred)) [PepSP1182], the Kd [1] was 75.8 nM and the “RT (residence time)” value [1] was 96.6 s.

AETVEFYGCTGDAYEYTCTW-NH2 (disulfide 9-18 (inferred)) [PepSP1147] was tested, and the Kd [1] was 59 nM and the “RT (residence time)” value [1] was 65.6 s.

With AETVEFWTCYWTEGVSGCRW-NH2 (disulfide 9-18 (inferred)) [PepSP1151] the Kd [1] was 125 nM and the “RT (residence time)” value [1] was 167 s.

AETVEFWDCWGNTDDWTCTW (not shown: M13 pIII coat protein) [SEQ ID NO 41]: binds [2]; binds [3].

AETVEFYGCYGDRNDYTCTW (not shown: M13 pIII coat protein) [SEQ ID NO 42]: binds [2]; binds [3].

AETVEFLGCHGDNSEWTCVW (not shown: M13 pIII coat protein) [SEQ ID NO 43]: binds [2]; binds [3].

For AETVEYWRCDWYEETVACGT-NH2 (disulfide 9-18 (inferred)) [PepSP1155], the Kd [1] was 155 nM and the “RT (residence time)” value [1] was 177 s.

AETVEFWSCKWWGGAADEYTYSCGW (not shown: M13 pIII coat protein) [SEQ ID NO 44]: binds [2]; binds [3].

AETVEFYGCTGDAYEYTCTW (not shown: M13 pIII coat protein) [SEQ ID NO 45]: binds [2]; binds [3].

AETVEFWTCYWTEGVSGCRW (not shown: M13 pIII coat protein) [SEQ ID NO 46]: binds [2]; binds [3].

AETVEYWRCDWYEETVACGT (not shown: M13 pIII coat protein) [SEQ ID NO 47]: binds [2]; binds [3].

AETVEFWSCHYSYWTVSCGT (not shown: M13 pIII coat protein) [SEQ ID NO 48]: binds [2]; binds [3].

AETVEFYGCSMDWRGVTCAW (not shown: M13 pIII coat protein) [SEQ ID NO 49]: binds [2]; binds [3].

AETVEFRGCTGNVYDWTCVW (not shown: M13 pIII coat protein) [SEQ ID NO 51]: binds [2]; binds [3].

AETVEFWTCHGNADEWTCSW (not shown: M13 pIII coat protein) [SEQ ID NO 52]: binds [2]; binds [3].

AETVEFDGCKGDWYEWTCWW (not shown: M13 pIII coat protein) [SEQ ID NO 53]: binds [2]; binds [3].

With AETVEFWSCHYSYWTVSCGT-NH2 (disulfide 9-18 (inferred)) [PepSP1157] the Kd [1] was 123 nM and the “RT (residence time)” value [1] was 89 s.

AETVEFYGCRGGDGEWTCVW (not shown: M13 pIII coat protein) [SEQ ID NO 54]: binds [2]; binds [3].

AETVEFDYCYGDVEEWTCVY (not shown: M13 pIII coat protein) [SEQ ID NO 55]: binds [2]; binds [3].

AETVEFYGCETYSGGWTCLW (not shown: M13 pIII coat protein) [SEQ ID NO 56]: binds [2]; binds [3].

AETVEFYGCKWDWKGWTCAW (not shown: M13 pIII coat protein) [SEQ ID NO 57]: binds [2]; binds [3].

In the case of AETVEFYGCSMDWRGVTCAW-NH2 (disulfide 9-18 (inferred)) [PepSP1158], the Kd [1] is reported as 643 nM and the “RT (residence time)” value [1] is reported as 31 s.

With AETVEFDYCLWAPDAWGCQN-NH2 (disulfide 9-18) [PepSP1159] the Kd [1] was 900 nM and the “RT (residence time)” value [1] was 6 s.

For AETVEFRGCTGNVYDWTCVW-NH2 (disulfide 9-18 (inferred)) [PepSP1160], the Kd [1] was 494 nM and the “RT (residence time)” value [1] was 47 s.

AETVEFWTCHGNADEWTCSW-NH2 (disulfide 9-18 (inferred)) [PepSP1162] was tested, and the Kd [1] was 159 nM and the “RT (residence time)” value [1] was 51 s.

AETVEFLGCHGDNSEWTCVW-NH2 (disulfide 9-18 (inferred)) [PepSP1163] was tested, and the Kd [1] was 69 nM and 68.7 nM and the “RT (residence time)” value [1] was 167 s.

With AETVEFDGCKGDWYEWTCWW-NH2 (disulfide 9-18 (inferred)) [PepSP1164] the Kd [1] was 125 nM and the “RT (residence time)” value [1] was 125 s.

In the case of AETVEFYGCRGGDGEWTCVW-NH2 (disulfide 9-18 (inferred)) [PepSP1165], the Kd [1] is reported as 263 nM and the “RT (residence time)” value [1] is reported as 66 s.

For AETVEFDYCYGDVEEWTCVY-NH2 (disulfide 9-18 (inferred)) [PepSP1166], the Kd [1] was 145 nM and the “RT (residence time)” value [1] was 48 s.

In the case of AETVEFYGCETYSGGWTCLW-NH2 (disulfide 9-18 (inferred)) [PepSP1167], the Kd [1] is reported as 399 nM and the “RT (residence time)” value [1] is reported as 47 s.

With AETVEFYGCKWDWKGWTCAW-NH2 (disulfide 9-18 (inferred)) [PepSP1168] the Kd [1] was 568 nM and the “RT (residence time)” value [1] was 44 s.

In the case of AETVEFYGCSVNADGWTCSW-NH2 (disulfide 9-18 (inferred)) [PepSP1170], the Kd [1] is reported as 166 nM and the “RT (residence time)” value [1] is reported as 43 s.

AETVEFYGCYGEQEQWTCLW-NH2 (disulfide 9-18 (inferred)) [PepSP1173] was tested, and the Kd [1] was 106 nM and the “RT (residence time)” value [1] was 101 s.

For AETVEFYGCQYYGWDYTCAW-NH2 (disulfide 9-18 (inferred)) [PepSP1176], the Kd [1] was 207 nM and the “RT (residence time)” value [1] was 67 s.

For AETVEFYGCWGNYNDYTCSW-NH2 (disulfide 9-18 (inferred)) [PepSP1177], the Kd [1] was 236 nM and the “RT (residence time)” value [1] was 52 s.

For AETVEFYGCYGDRNDYTCTW-NH2 (disulfide 9-18 (inferred)) [PepSP1178], the Kd [1] was 147 nM and the “RT (residence time)” value [1] was 75.9 s.

For WGCTGTWGNETCWW-NH2 (disulfide 3-12 (inferred), PepSP1146 without AETVEF) [PepSP1213], the Kd [1] was 7500 nM and the “RT (residence time)” value [1] was 1.36 s.

In the case of WDCWGNTDDWTCTW-NH2 (disulfide 3-12 (inferred), PepSP1161 without AETVEF) [PepSP1269], the Kd [1] is reported as 181 nM and the “RT (residence time)” value [1] is reported as 20 s.
